# Measured values reported in paper PMC7969030.
# T1: Kuwt (Bacillus subtilis, UniProt O34859 1-311)
# T1 sequence: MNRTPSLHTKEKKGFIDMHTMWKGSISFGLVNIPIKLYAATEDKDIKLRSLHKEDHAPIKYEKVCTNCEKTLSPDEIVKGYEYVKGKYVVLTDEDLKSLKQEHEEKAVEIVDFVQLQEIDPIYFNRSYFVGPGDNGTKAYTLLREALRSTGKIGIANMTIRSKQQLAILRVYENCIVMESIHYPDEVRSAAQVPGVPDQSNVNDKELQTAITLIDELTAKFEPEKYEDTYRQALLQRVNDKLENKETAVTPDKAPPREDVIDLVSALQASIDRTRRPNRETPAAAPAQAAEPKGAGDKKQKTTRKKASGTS
# T2: Kucore (Bacillus subtilis, UniProt O34859 1-253)
# T2 sequence: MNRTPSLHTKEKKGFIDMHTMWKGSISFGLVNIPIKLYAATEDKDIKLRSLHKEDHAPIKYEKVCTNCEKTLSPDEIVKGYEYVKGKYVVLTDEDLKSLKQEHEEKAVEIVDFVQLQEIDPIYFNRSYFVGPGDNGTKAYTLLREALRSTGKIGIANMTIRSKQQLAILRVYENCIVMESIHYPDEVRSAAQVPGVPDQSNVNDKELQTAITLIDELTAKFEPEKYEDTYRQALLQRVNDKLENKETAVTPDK
# T3: Kuwt;LigD (Bacillus subtilis;Bacillus subtilis, UniProt O34859;O34398 1-311;1-611, |)
# T3 sequence 1: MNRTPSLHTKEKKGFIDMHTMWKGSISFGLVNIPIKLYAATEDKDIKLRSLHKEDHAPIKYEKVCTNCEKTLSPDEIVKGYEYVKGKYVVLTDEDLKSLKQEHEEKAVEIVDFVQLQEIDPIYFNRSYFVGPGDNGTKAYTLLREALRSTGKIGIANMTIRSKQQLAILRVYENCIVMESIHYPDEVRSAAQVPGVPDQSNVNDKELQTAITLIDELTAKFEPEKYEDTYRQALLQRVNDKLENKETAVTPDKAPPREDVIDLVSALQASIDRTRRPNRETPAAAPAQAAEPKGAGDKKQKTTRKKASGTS
# T3 sequence 2: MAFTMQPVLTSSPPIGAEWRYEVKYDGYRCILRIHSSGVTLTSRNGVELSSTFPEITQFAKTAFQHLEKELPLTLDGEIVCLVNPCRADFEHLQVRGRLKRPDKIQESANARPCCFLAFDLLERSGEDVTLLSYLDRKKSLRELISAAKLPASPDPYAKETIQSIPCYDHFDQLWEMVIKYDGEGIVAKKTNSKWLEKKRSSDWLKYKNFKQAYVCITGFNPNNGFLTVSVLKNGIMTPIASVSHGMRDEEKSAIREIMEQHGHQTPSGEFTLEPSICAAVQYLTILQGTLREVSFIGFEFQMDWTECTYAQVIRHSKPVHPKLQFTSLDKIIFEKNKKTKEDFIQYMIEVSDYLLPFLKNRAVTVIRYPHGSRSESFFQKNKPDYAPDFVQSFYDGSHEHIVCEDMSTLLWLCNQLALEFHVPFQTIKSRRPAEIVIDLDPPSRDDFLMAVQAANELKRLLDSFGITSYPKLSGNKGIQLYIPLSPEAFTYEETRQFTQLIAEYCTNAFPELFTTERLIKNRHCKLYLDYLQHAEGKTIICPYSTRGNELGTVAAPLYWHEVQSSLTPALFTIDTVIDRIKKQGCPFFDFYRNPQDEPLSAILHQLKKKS
# B1: 50 bp blunt DNA (SPR) (dsDNA)
# DNA 1: CCTCTAGACCTGTACTACTCGAGAGATCGATCGACAGACGATGACTTAGC
# DNA 2: GCTAAGTCATCGTCTGTCGATCGATCTCTCGAGTAGTACAGGTCTAGAGG
# modifications: 5' biotin on one strand
# B2: 50 bp DNA with 4 nt overhang (dsDNA)
# DNA 1: CCTCTAGACCTGTACTACTCGAGAGATCGATCGACAGACGATGACTTAGC
# DNA 2: CTGAGCTAAGTCATCGTCTGTCGATCGATCTCTCGAGTAGTACAGGTCTAGAGG
# modifications: 5' 6-FAM on one strand
# B3: 50 bp blunt DNA (EMSA, photobleaching) (dsDNA)
# DNA 1: CCTCTAGACCTGTACTACTCGAGAGATCGATCGACAGACGATGACTTAGC
# DNA 2: GCTAAGTCATCGTCTGTCGATCGATCTCTCGAGTAGTACAGGTCTAGAGG
# modifications: 5' 6-FAM on one strand (EMSA)
# Key:
# Kuwt [1] = biological target: T1, Kuwt; experiment: SPR
# Kucore [2] = biological target: T2, Kucore; experiment: SPR
# Kuwt [3] = biological target: T1, Kuwt; experiment: EMSA
# Kucore [4] = biological target: T2, Kucore; experiment: EMSA
# Kuwt;LigD = biological target: T3, Kuwt;LigD; experiment: EMSA
binder,measurement,setting,value
B1,Kd,Kuwt [1],6.7 nM
same,Kd,Kucore [2],9.3 nM
B2,binding result,Kuwt [3],binds
same,binding result,Kucore [4],binds
B3,binding result,Kuwt;LigD,binds
